Source: US20210024625A1 (published 2021)
Positions count from the first letter of the chain named.

B1: H1H29089P (antibody, V domains shown)
VH: EVQLVQSGAEVKKPGESLKISCKGSGYSFTSYWIVWVRQMPGKGLEWMGIIYPGDSDTRYSPSFQGQVTISADKSISTAYLQWSSLKASDTAMYYCARQDITGTTGFDYWGQGTLVTVSS
VL: DIQMTQSPSSLSASVGDRVTITCRASQSIRNYLNWYQQKPGKAPKLLIYAASSLQSGVPSRFSGSGSGTDFTLTISSLQPEDFATYFCQQSYSTPFTFGPGTKVDIKR
B2: H1H29100P (antibody, V domains shown)
VH: QLQLQESGPGLVKPSETLSLTCTVSGGSISSSSYYWGWIRQPPGKGLEWIGIIYYSGSTYYNPSLKSRVTISVDTSKNQFSLKLSSVTAADTAVYYCARQDREALFDYWGQGTLVTVSS
VL: EIVLTQSPDFQSVTPKEKVTITCRASQRIGSSLHWYQQKPDQSPKLLIKYASQSFSGVPSRFSGSGSGTDFTLTINSLEAEDAATYYCHQSSTLPTFGQGTRLEIKR
B3: H1H29187P2 (antibody, V domains shown)
VH: QVQLVESGGGVVQPGRFLRLSCAASGFTFSNSGMHWVRQAPGKGLEWVAGIWHDGSYKYYVDSVKGRFTISRDNSKNTLFLQMNSLRAEDTAVYYCARDDYYASGTSVDVWGQGTTVTVSS
VL: not shown
B4: H1H29147P2 (antibody, V domains shown)
VH: QVQLVQSGAEVKNPGSSVKVSCKASGGTFSSYTINWVRQAPGQGLEWMGGIIPLYGTANYAQKFQARVTISTDESTNTAYMELSNLRFEDTAVYFCASTLELRAFDAFDIWGQGTMVTVSS
VL: not shown
B5: H1H29127P (antibody, V domains shown)
VH: QVQLVESGGGVVQPGRSLRLSCAASGFTFSSYGMHWVRQAPGKGLEWVAAIWYDGSNKYYADSVKGRFTISRDNSKNTLYLQMNSLRAEDTAVYFCARGEHYYGSGPFDPWGQGTLVTVSS
VL: B1 VL with R30S, Y49F, F87Y, T94S, F96L, P100G, D105E

biological target: T1, PfRH5 from Plasmodium falciparum strain FCR-1/FVO (Plasmodium falciparum); assay: cell-based or functional assay

Binder | Percent Maximum Growth Inhibition, mAb (6.67 µM) + AHIS (10%) | Percent Maximum Growth Inhibition, mAb (6.67 µM) + ANS (10%) | Percent Maximum Growth Inhibition, mAb (6.67 µM) + HHIS (10%) | Percent Maximum Growth Inhibition, mAb (6.67 µM) + HNS (10%) | Percent Maximum Growth Inhibition, mAb (6.67 µM) + No serum
B1 | 84.3% | 75.7% | 85.2% | 85% | 85.3%
B2 | 82.5% | 73.2% | 81.9% | 82.4% | 83.9%
B3 | 89.4% | 80.1% | 85.4% | 85.9% | 85.3%
B4 | 86.2% | 80.3% | 83.4% | 85.6% | 84.1%

biological target: T2, PfRH5 from Plasmodium falciparum strain Dd2 (Plasmodium falciparum); assay: cell-based or functional assay

Binder | Maximum growth inhibition (%)
B5 | 56.9%
B2 | 65.7%

biological target: T3, PfRH5 from Plasmodium falciparum strain 7G8 (Plasmodium falciparum); assay: cell-based or functional assay

Binder | Max growth inhibition (%), Chloroquine Phosphate N/A
B1 | 51.1%
B2 | 48.9%
B3 | 49.3%
B4 | 47.3%

biological target: T4, PfRH5 from Plasmodium falciparum strain 3D7 (Plasmodium falciparum, UniProt Q8IFM5 25-526); assay: cell-based or functional assay
T4 sequence: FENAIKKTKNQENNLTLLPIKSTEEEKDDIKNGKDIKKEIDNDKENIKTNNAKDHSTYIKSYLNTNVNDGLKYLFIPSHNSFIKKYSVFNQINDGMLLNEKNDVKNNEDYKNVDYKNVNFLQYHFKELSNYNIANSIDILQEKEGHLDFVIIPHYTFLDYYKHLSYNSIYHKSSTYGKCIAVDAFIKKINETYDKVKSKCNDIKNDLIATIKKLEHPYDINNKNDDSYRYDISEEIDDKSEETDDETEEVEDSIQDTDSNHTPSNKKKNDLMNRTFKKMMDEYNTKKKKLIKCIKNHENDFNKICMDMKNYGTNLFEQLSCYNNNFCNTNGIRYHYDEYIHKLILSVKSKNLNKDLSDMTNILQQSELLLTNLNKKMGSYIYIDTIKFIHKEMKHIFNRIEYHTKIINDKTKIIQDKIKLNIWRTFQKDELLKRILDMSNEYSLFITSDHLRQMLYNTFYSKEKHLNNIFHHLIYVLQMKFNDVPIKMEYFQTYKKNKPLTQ

Binder | Max growth inhibition (%), Chloroquine Phosphate N/A
B1 | 61.1%
B2 | 58%
B3 | 47.6%
B4 | 34.9%

biological target: T1, PfRH5 from Plasmodium falciparum strain …; assay: cell-based or functional assay; remark: another data set of the same source

Binder | Max growth inhibition (%)
B1 | 66%
B5 | 61.1%
B2 | 66.9%
B3 | 72.2%
B4 | 70.3%

biological target: PfRH5 from Plasmodium falciparum strain HB3 (Plasmodium falciparum); assay: cell-based or functional assay

Binder | Max growth inhibition (%)
B1 | 59.1%
B5 | 59.4%
B2 | 62.6%
B3 | 63.9%
B4 | 64.8%

biological target: PfRH5 from Plasmodium falciparum strain W2-mef (Plasmodium falciparum); assay: cell-based or functional assay

Binder | Max growth inhibition (%)
B1 | 66.4%
B5 | 53.6%
B2 | 67.3%
B3 | 67.3%
B4 | 64.7%

biological target: T3, PfRH5 from Plasmodium falciparum strain …; assay: cell-based or functional assay; remark: another data set of the same source

Binder | Max growth inhibition (%)
B1 | 70.1%
B5 | 61.2%
B2 | 66.4%
B4 | 65.2%

biological target: PfRH5 from Plasmodium falciparum strain D10 (Plasmodium falciparum); assay: cell-based or functional assay

Binder | Max growth inhibition (%)
B1 | 82.3%
B5 | 74.4%
B2 | 81.7%
B3 | 79.6%
B4 | 81.4%

biological target: PfRH5 from Plasmodium falciparum strain Cam3.II (Plasmodium falciparum); assay: cell-based or functional assay

Binder | Max growth inhibition (%)
B1 | 56.2%
B5 | 47%
B2 | 52.4%
B3 | 49.2%
B4 | 51.9%

biological target: PfRH5 from Plasmodium falciparum strain RF7 (Plasmodium falciparum); assay: cell-based or functional assay

Binder | Max growth inhibition (%)
B1 | 28.9%
B5 | 25.7%
B2 | 17%
B3 | 32.7%
B4 | 31.4%

biological target: T4, PfRH5 from Plasmodium falciparum strain …; assay: cell-based or functional assay; remark: another data set of the same source

Binder | Max growth inhibition (%)
B1 | 67.6%
B5 | 63.9%
B3 | 70.7%
B4 | 60.3%

biological target: T2, PfRH5 from Plasmodium falciparum strain …; assay: cell-based or functional assay; remark: another data set of the same source

Binder | Max growth inhibition (%)
B1 | 71.3%
B5 | 64.7%
B2 | 64.6%
B3 | 66%
B4 | 65.3%
